According to US20170296628A1 (GRIFFON PHARMACEUTICALS, published 2017):
Like-named read-outs stand apart in the source and are kept apart here. One block for each binder: values may come before it. Non-standard residues stand in square brackets, D forms with d. No end group written: not given here. hArg = N=C(N)NCCCC[C@H](N)C(=O)O; Orn = NCCC[C@H](N)C(=O)O

How the values were obtained:
human GHRH receptor [1] = molecular target: T1, human GHRH receptor (human, UniProt Q02643 23-423); test: cell-based or functional assay
T1 sequence (looked up): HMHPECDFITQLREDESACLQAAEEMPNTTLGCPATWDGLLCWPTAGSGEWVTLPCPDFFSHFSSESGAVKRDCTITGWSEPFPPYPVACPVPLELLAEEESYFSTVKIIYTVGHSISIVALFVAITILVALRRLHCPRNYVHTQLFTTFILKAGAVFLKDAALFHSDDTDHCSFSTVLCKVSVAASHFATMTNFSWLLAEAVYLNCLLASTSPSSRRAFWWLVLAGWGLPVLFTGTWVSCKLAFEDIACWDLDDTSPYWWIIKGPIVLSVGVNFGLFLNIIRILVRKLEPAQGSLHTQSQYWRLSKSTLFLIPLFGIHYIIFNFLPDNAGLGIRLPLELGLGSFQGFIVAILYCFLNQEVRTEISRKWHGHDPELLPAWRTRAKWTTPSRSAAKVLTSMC

human GHRH receptor [2] = molecular target: T1, human GHRH receptor; test: cell-based or functional assay; remark: listed apart in the source

- EC50 (nM), Hit Hunter cAMP agonist assay (human GHRH receptor [2]): 0.41 nM
- Max. response (%) (human GHRH receptor [2]): 103%
- Potency (%) (% EC50 compared to baseline) (human GHRH receptor [2]): 361%
Binder: Y[dA]DAIFTAC(PEG 2 kDa)YR[Orn]VLAQLSAR[Orn]ALC(PEG 2 kDa)DILSRN-NH2 [Analog 13 (C9,24)]

- EC50 (nM), Hit Hunter cAMP agonist assay (human GHRH receptor [2]): 0.73 nM
- Max. response (%) (human GHRH receptor [2]): 97.2%
- Potency (%) (% EC50 compared to baseline) (human GHRH receptor [2]): 203%
Binder: Y[dA]DAIFTAC(PEG 2 kDa)YR[Orn]VLAQLSAR[Orn]C(PEG 2 kDa)LQDILSRN-NH2 [Analog 14 (C9,22)]

- Max Response (%) (human GHRH receptor [1]): 104%
- Potency (%) (% EC50 compared to baseline) (human GHRH receptor [1]): 100%
- Max. response (%) (human GHRH receptor [2]): 113%
- Potency (%) (% EC50 compared to baseline) (human GHRH receptor [2]): 100%
Binder: YADAIFTNSYRKVLGQLSARKLLQDIMSX (C-terminal amide) [Human GHRH1-29]

- EC50 (nM), Hit Hunter cAMP agonist assay (human GHRH receptor [2]): 0.74 nM
- Max. response (%) (human GHRH receptor [2]): 93.7%
- Potency (%) (% EC50 compared to baseline) (human GHRH receptor [2]): 200%
Binder: Y[dA]DAIFTAC(PEG 40 kDa)YR[Orn]VLAQLSAR[Orn]ALQDILS[hArg]-NH2 [Analog 16 (C9)]

- EC50 (nM), Hit Hunter cAMP agonist assay (human GHRH receptor [2]): 0.22 nM
- Max. response (%) (human GHRH receptor [2]): 94.3%
- Potency (%) (% EC50 compared to baseline) (human GHRH receptor [2]): 669%
B1: Analog 15 (C9) (peptide)
peptide: Y[dA]DAIFTACYR[Orn]VLAQLSAR[Orn]ALQDILS[hArg]-NH2
modifications: not fully specified (residue 9); printed as YaDAIFTAC(Peg-5K)YROVLAQLSAROALQDILS(Har)-NH2

More lines, now with the values behind:

Binder: Y[dA]DAIFTASYR[Orn]VLC(PEG 2 kDa)QLSAR[Orn]ALQDILSKN-NH2 [Analog 5 (C15)]
- EC50 (nM), Hit Hunter cAMP agonist assay (human GHRH receptor [1]): 1.38 nM
- Max Response (%) (human GHRH receptor [1]): 107%
- Potency (%) (% EC50 compared to baseline) (human GHRH receptor [1]): 26%

Binder: Y[dA]DAIFTASYR[Orn]VLAQLSC(PEG 2 kDa)R[Orn]ALQDILSKN-NH2 [Analog 4 (C19)]
- EC50 (nM), Hit Hunter cAMP agonist assay (human GHRH receptor [1]): 1.32 nM
- Max Response (%) (human GHRH receptor [1]): 94.9%
- Potency (%) (% EC50 compared to baseline) (human GHRH receptor [1]): 27%

Binder: Y[dA]DAIFTASYR[Orn]VLAQLSAR[Orn]ALQDC(PEG 2 kDa)LSKN-NH2 [Analog 8 (C26)]
- EC50 (nM), Hit Hunter cAMP agonist assay (human GHRH receptor [1]): 0.98 nM
- Max Response (%) (human GHRH receptor [1]): 106%
- Potency (%) (% EC50 compared to baseline) (human GHRH receptor [1]): 37%

Binder: Y[dA]DAIFTAC(PEG 2 kDa)YR[Orn]VLAQLSAR[Orn]ALQDILC(PEG 2 kDa)RN-NH2 [Analog 12 (C9,28)]
- Max. response (%) (human GHRH receptor [2]): 102%
- Potency (%) (% EC50 compared to baseline) (human GHRH receptor [2]): 416%

Binder: Y[dA]DAIFTC(PEG 2 kDa)SYR[Orn]VLAQLSAR[Orn]ALQDILSKN-NH2 [Analog 7 (C8)]
- EC50 (nM), Hit Hunter cAMP agonist assay (human GHRH receptor [1]): 0.69 nM
- Max Response (%) (human GHRH receptor [1]): 108%
- Potency (%) (% EC50 compared to baseline) (human GHRH receptor [1]): 52%

Binder: Y[dA]DAIFTAC(PEG 2 kDa)YR[Orn]VLAQLSAR[Orn]ALQDILS[hArg]-NH2 [Analog 10 (C9)]
- EC50 (nM), Hit Hunter cAMP agonist assay (human GHRH receptor [2]): 0.11 nM
- Max. response (%) (human GHRH receptor [2]): 96.2%
- Potency (%) (% EC50 compared to baseline) (human GHRH receptor [2]): 1400%

Binder: Y[dA]DAIFTAC(PEG 2 kDa)YR[Orn]VLAQLSAR[Orn]ALQDILSKN-NH2 [Analog 6 (C9)]
- EC50 (nM), Hit Hunter cAMP agonist assay (human GHRH receptor [1]): 0.29 nM
- Max Response (%) (human GHRH receptor [1]): 102%
- Potency (%) (% EC50 compared to baseline) (human GHRH receptor [1]): 123%

Binder: Y[dA]DAIFTAC(PEG 2 kDa)YR[Orn]VLAQLSAR[Orn]ALQDILSRNC(PEG 2 kDa)-NH2 [Analog 11 (C9,31)]
- EC50 (nM), Hit Hunter cAMP agonist assay (human GHRH receptor [2]): 0.47 nM
- Max. response (%) (human GHRH receptor [2]): 97.2%
- Potency (%) (% EC50 compared to baseline) (human GHRH receptor [2]): 314%

Binder: Y[dA]DAIFTASYR[Orn]VLAC(PEG 2 kDa)LSAR[Orn]ALQDILSKN-NH2 [Analog 9 (C16)]
- EC50 (nM), Hit Hunter cAMP agonist assay (human GHRH receptor [1]): 0.92 nM
- Max Response (%) (human GHRH receptor [1]): 107%
- Potency (%) (% EC50 compared to baseline) (human GHRH receptor [1]): 39%

Binder: Y[dA]DAIFTASYR[Orn]VLAQLSAR[Orn]ALQDILC(PEG 2 kDa)KN-NH2 [Analog 1 (C28)]
- EC50 (nM), Hit Hunter cAMP agonist assay (human GHRH receptor [1]): 0.29 nM
- Max Response (%) (human GHRH receptor [1]): 105%
- Potency (%) (% EC50 compared to baseline) (human GHRH receptor [1]): 125%

Binder: Y[dA]DAIFTASYR[Orn]VLAQLSAR[Orn]C(PEG 2 kDa)LQDILSKN-NH2 [Analog 3 (C22)]
- EC50 (nM), Hit Hunter cAMP agonist assay (human GHRH receptor [1]): 0.25 nM
- Max Response (%) (human GHRH receptor [1]): 100%
- Potency (%) (% EC50 compared to baseline) (human GHRH receptor [1]): 143%

Binder: Y[dA]DAIFTASYR[Orn]VLAQLSAR[Orn]ALC(PEG 2 kDa)DILSKN-NH2 [Analog 2 (C24)]
- EC50 (nM), Hit Hunter cAMP agonist assay (human GHRH receptor [1]): 0.28 nM
- Max Response (%) (human GHRH receptor [1]): 108%
- Potency (%) (% EC50 compared to baseline) (human GHRH receptor [1]): 130%
